Data on two molecules can be found in paper PMC7790435.

The experiment concerns the target Thermotoga maritima CheA, full-length (Thermotoga maritima) (UniProt Q56310). As to the kind of experiment: cross-linking + SEC-MALS.

Broadly, the stoichiometry N is the number of molecules, sites or subunits per partner or assembly.

Regarding “Thermotoga maritima CheA, full-length (from UniProt Q56310 1-671) (enzyme)”, the stoichiometry N is 2.

B1: Thermotoga maritima CheW (natural protein)
chain: KEFEVLSFEIDEQALAFDVDNIEMVIEKSDITPVPKSRHFVEGVINLRGRIIPVVNLAKILGISFDEQKMKSIIVARTKDVEVGFLVDRVLGVLRITENQLDLTNVSDKFGKKSKGLVKTDGRLIIYLDIDKIIEEITV
On to B1, for which the stoichiometry N was determined as 2.
